Three substances from article PMC10593741 can be followed below.

For series [1], the target named is H3-H4 tetramer of S. cerevisiae (on DNA: H3-H4 tetrasome) (S. cerevisiae) (UniProt P61830). Description: single-molecule photobleaching step counting, fit of a probability model; H2A^AF488 foci, chromatinized ARS1 origin, after 30 min bulk incubation with ORC, Cdc6 and MCM^JF646/Cdt1.
Series [2] shares this target. Description: single-molecule photobleaching step counting, fit of a probability model; H2A^AF488 foci at the chromatinized ARS1 origin, imaged immediately after introduction into the flow cell; p_label fixed at 0.81.
Series [3] has the same target. Description: single-molecule photobleaching step counting, fit of a probability model; H2A^AF488 foci, chromatinized mutated origin, after 30 min bulk incubation with ORC, Cdc6 and MCM^JF646/Cdt1.
Series [4] shares this target. The series can be described thus: single-molecule photobleaching step counting, fit of a probability model; H2A^AF488 foci, chromatinized ARS1 origin, after 30 min bulk incubation in buffer only.
Series [5] shares this target. The series can be described thus: single-molecule photobleaching step counting, fit of a probability model; H2A^AF488 foci, chromatinized mutated origin, after 30 min bulk incubation with ORC^JF646 and Cdc6.
Series [6] shares this target. Description: single-molecule photobleaching step counting, fit of a probability model; H2A^AF488 foci, chromatinized ARS1 origin, after 30 min bulk incubation with ORC^JF646 and Cdc6.
Series [7] concerns ORC-JF646 (Origin Recognition Complex, HaloTag-JF646 on N-terminus of Orc3) (Saccharomyces cerevisiae). Description: single-molecule fluorescence with optical tweezers. The following applies: Bulk loading: 25 mM HEPES-KOH pH 7.6, 10 mM MgOAc, 100 mM KOAc, 0.02% NP40, 5% glycerol, 1 mM DTT, 5 mM ATP or ATPgS, 30 C, single-molecule buffer not …; for binding signal (% of foci in origin bin): 5 nM ORC, 5 s rapid binding, 30 min; for binding signal (% of DNA molecules with ORC): Cdc6, ATP, 30 min stable binding.

In series [8] the test system is Histone octamer H2A(K120C)-AF488/H2B/H3/H4 (Saccharomyces cerevisiae). The series can be described thus: single-molecule fluorescence of reconstituted nucleosomes. The settings on record: 100 mM KOAc, 0.02% NP40, 5% glycerol, 1 mM DTT, 5 mM ATP or ATPgS, 30 C, single-molecule buffer not ….

As for “H2A^AF488-H2B dimer (S. cerevisiae H2A K120C labelled with AF488, with H2B) (from UniProt P04911 2-132; P02293 5-131) (complex)”, the ph2a (probability of H2A-H2B dimer association with the H3-H4 tetrasome) turned out to be 0.84 in series [1]; 0.77 in series [2]; 0.91 in series [3]; 0.73 in series [4]; 0.6 in series [5]; 0.81 in series [6].

“10.4 kbp DNA, ARS1 origin, chromatinized (two nucleosomes)” had a binding signal (% of foci in origin bin) in series [7] (nucleosomes) of 39. For the same substance, the binding signal (% of DNA molecules with ORC) in series [7] (nucleosomes, 51% of foci in origin bin) came to 41.

As to 10.4 kbp DNA, ARS1 origin, bare, the binding signal (% of foci in origin bin) in series [7] came out at 30. The binding signal (% of DNA molecules with ORC) in series [7] (61% of foci in origin bin) was 79. The binding signal (% of H2A foci in origin bin) in series [8] (after 30 min with ORC-JF646 and Cdc6, Bulk loading: 25 mM HEPES-KOH pH 7.6, 10 mM MgOAc) turned out to be 49; in series [8] (salt-gradient dialysis, after 30 min in buffer, chromatinized form is N2, Bulk loading: 25 mM HEPES-KOH pH 7.6, 10 mM MgOAc) it was 80.
